Data published in article PMC6541287 (2019).

Biological target: T1, Coactosin (Entamoeba histolytica, UniProt C4M4P4)
T1 chain: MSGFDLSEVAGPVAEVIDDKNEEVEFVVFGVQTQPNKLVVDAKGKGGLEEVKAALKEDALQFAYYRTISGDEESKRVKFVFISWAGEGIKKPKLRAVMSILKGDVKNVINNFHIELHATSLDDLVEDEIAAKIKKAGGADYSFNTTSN
Experiment: SPR

B1: EhP3 (protein)
chain: MAESREDCVFLSKLAEQSERYDEMVQYMKQVAALNTELSVEERNLLSVAYKNVIGSRRASWRIITSLEQKEQAKGNDKHVEIIKGYRAKIEDELAKYCDDVLKVIKENLLPNASTSESKVFYKKMEGDYYRYYAEFTVDEKRQEVADKSLAAYTEATEISNADLAPTHPIRLGLALNFSVFYYEIMNDADKACQLAKQAFDDSIAKLDEVPESSYKDSTLIMQLLRDNLTLWTSDTADEE
In the case of B1, the Kd is reported as 3000 nM.
